Source: doi:10.1101/2023.12.09.570830

Biological target: UmbC1 (untagged, in the Umb1 particle) (Streptomyces coelicolor A3(2) (endogenous))
Experiment: cryo-EM structure

**Q.** For UmbB1 (natural protein), which stoichiometry N is on record?
**A.** The stoichiometry N was 5.
